This is an account of results in article PMC4812251.

Substrate in this data set: CC(=O)O
The data set is described as follows: purified protein. As to conditions: ATP 10 mM, CoA 0.1 mM, MgCl2 5 mM, acetate salt 2.5-80 mM.

B1: DtACS (Dunaliella tertiolecta) (protein)
chain: MKCSALPAGSRPQALATHTSMQAPLLLRSLAPSVPKLAQPAGTPLVHSSLPCYRKSRSCSHLASASSTAPGSTTMKPQPLLTNFIQSKEEYDALYARSIADPASFWGDVAEQFHWEKKWDPDHHSFNFDVTKGPINVEWFKGGFTNICYNALDRHVMTGHGNQHCMLFEGNEPGSDGAMTYTQVLDEVCRLANWMKAQGIGKGDCVAIYMPMVMQLPIAMLACARIGAVHSVVFGGFSADALAGRMEDCKARVLLTCNGGMRATKKIELKQIADQAIEMCASRGHTVDSVLVFANHKDGVAGAEAAGTPFTQGRDAWWQPTLAEFPALCDVAWVPAEHPLFLLYTSGSTGKPKGVLHTTGGYMVYAATTTKHAFQLQPGDVFWCTADCGWITGHSYLAYGPLLNRAVSVVFEGVPTHPTPARSWEIIDKYQVKQFYTAPTALRSLMRSGDEWLSSTSRQSLQVLGTVGEPINPEAWHWFHDLVGNGRCPVVDTWWQTETGGHMILPLPRAWPAKPGSATLPFFGVEPVILDDKGVELQGECEGLLMMRRPWPSTLRSVYGDHKRYEENYFGPYPGYYFTGDGARRDKDGYYWITGRVDDVINVSGHRIGTAEVESAIAAHHDCAEAAVAGYEHPVKGQGIYAFVVLKEGVVPNDQLKKEMWTNVRTTIGAFAAPDVIHWAPGLPKTRSGKIMRRVLRKIAGGQENELGDTSTLADPSIVRQLIETRN
One may read the Km as the substrate concentration at which the rate is half of its maximum. As for B1, the Km is recorded as 3.59 mM (Tris-Cl pH 8.0, 37 °C (general assay)) and 4.66 mM (Tris-Cl pH 8.0, 37 °C (general assay; mix lists 10 mM potassium acetate as substrate)).
